# B1: SEC61A1 (protein)
# chain: MTQTARVLVKFLEVIKPFCVILPEIQKPERKIQFKEKVLWTAITLFIFLVCCQIPLFGIMSSDSADPFYWMRVILASNRGTLMELGISPIVTSGLIMQLLAGAKIIEVGDTPKDRALFNGAQKLFGMIITIGQSIVYVMTGMYGDPSEMGAGICLLITIQLFVAGLIVLLLDELLQKGYGLGSGISLFIATNICETIVWKAFSPTTVNTGRGMEFEGAIIALFHLLATRTDKVRALREAFYRQNLPNLMNLIATIFVFAVVIYFQGFRVDLPIKSARYRGQYNTYPIKLFYTSNIPIILQSALVSNLYVISQMLSARFSGNLLVSLLGTWSDTSSGGPARAYPVGGLCYYLSPPESFGSVLEDPVHAVVYIVFMLGSCAFFSKTWIEVSGSSAKDVAKQLKEQQMVMRGHRETSMVHELNRYIPTAAAFGGLCIGALSVLADFLGAIGSGTGILLAVTIIYQYFEIFVKEQSEVGSMGALLF
# B2: DNAJC3 (protein)
# chain: GVNADVEKHLELGKKLLAAGQLADALSQFHAAVDGDPDNYIAYYRRATVFLAMGKSKAALPDLTKVIQLKMDFTAARLQRGHLLLKQGKLDEAEDDFKKVLKSNPSENEEKEAQSQLIKSDEMQRLRSQALNAFGSGDYTAAIAFLDKILEVCVWDAELRELRAECFIKEGEPRKAISDLKAASKLKNDNTEAFYKISTLYYQLGDHELSLSEVRECLKLDQDHKRCFAHYKQVKKLNKLIESAEELIRDGRYTDATSKYESVMKTEPSIAEYTVRSKERICHCFSKDEKPVEAIRVCSEVLQMEPDNVNALKDRAEAYLIEEMYDEAIQDYETAQEHNENDQQIREGLEKAQRLLKQSQKRDYYKILGVKRNAKKQEIIKAYRKLALQWHPDNFQNEEEKKKAEKKFIDIAAAKEVLSDPEMRKKFDDGEDPLDAESQQGGGGNPFHRSWNSWQGFNPFSSGGPFRFKFHFN
# B3: SLC25A3 (protein)
# chain: AVEEYSCEFGSAKYYALCGFGGVLSCGLTHTAVVPLDLVKCRMQVDPQKYKGIFNGFSVTLKEDGVRGLAKGWAPTFLGYSMQGLCKFGFYEVFKVLYSNMLGEENTYLWRTSLYLAASASAEFFADIALAPMEAAKVRIQTQPGYANTLRDAAPKMYKEEGLKAFYKGVAPLWMRQIPYTMMKFACFERTVEALYKFVVPKPRSECSKPEQLVVTFVAGYIAGVFCAIVSHPADSVVSVLNKEKGSSASLVLKRLGFKGVWKGLFARIIMIGTLTALQWFIYDSVKVYFRLPRPPPPEMPESLKKKLGLTQ
# B4: EMC3 (protein)
# chain: AGPELLLDSNIRLWVVLPIVIITFFVGMIRHYVSILLQSDKKLTQEQVSDSQVLIRSRVLRENGKYIPKQSFLTRKYYFNNPEDGFFKKTKRKVVPPSPMTDPTMLTDMMKGNVTNVLPMILIGGWINMTFSGFVTTKVPFPLTLRFKPMLQQGIELLTLDASWVSSASWYFLNVFGLRSIYSLILGQDNAADQSRMMQEQMTGAAMAMPADTNKAFKTEWEALELTDHQWALDDVEEELMAKDLHFEGMFKKELQTSIF
# B5: DHCR7 (protein)
# chain: MAAKSQPNIPKAKSLDGVTNDRTASQGQWGRAWEVDWFSLASVIFLLLFAPFIVYYFIMACDQYSCALTGPVVDIVTGHARLSDIWAKTPPITRKAAQLYTLWVTFQVLLYTSLPDFCHKFLPGYVGGIQEGAVTPAGVVNKYQINGLQAWLLTHLLWFANAHLLSWFSPTIIFDNWIPLLWCANILGYAVSTFAMVKGYFFPTSARDCKFTGNFFYNYMMGIEFNPRIGKWFDFKLFFNGRPGIVAWTLINLSFAAKQRELHSHVTNAMVLVNVLQAIYVIDFFWNETWYLKTIDICHDHFGWYLGWGDCVWLPYLYTLQGLYLVYHPVQLSTPHAVGVLLLGLVGYYIFRVANHQKDLFRRTDGRCLIWGRKPKVIECSYTSADGQRHHSKLLVSGFWGVARHFNYVGDLMGSLAYCLACGGGHLLPYFYIIYMAILLTHRCLRDEHRCASKYGRDWERYTAAVPYRLLPGIF
# Test system: SLC16A11
# Assay: SLC16A11 protein-protein interaction study (immunoprecipitation, quantitative mass spectrometry)
# Set-up: species or system human
# Conditions: putative SLC16A11^REF interaction partners; immunoprecipitation from HEK293T cells vs empty vector control; Blandt-Altman
row,Molecule,BA log fold change
1,B1,1.84
2,B2,1.22
3,B3,1.65
4,B4,1.65
5,B5,1.69
